The source of these data is US7410949 (Hoffmann-La Roche, dated 2008).

*1 amine or outer side, *2 acyl side, *3 side chain or, on linkers, in order; H or OH if unused. Bridges are numbered along the chain shown (N, C = ends). [ ]: non-standard residue; d: D form. Pqa = N-piperazin-1-yl-4(3H)-quinazolinone-3-acetic acid, O=C(Cn1cnc2ccc(N3CCN([*:1])CC3)cc2c1=O)[*:2]; Phe(3,4,5-F3) = N[C@@H](Cc1cc(F)c(F)c(F)c1)C(=O)O; Phe(F5) = N[C@@H](Cc1c(F)c(F)c(F)c(F)c1F)C(=O)O; 4Pal = N[C@@H](Cc1ccncc1)C(=O)O; Tic = O=C(O)[C@@H]1Cc2ccccc2CN1; 4‑MeOApc = not defined here; Nle = CCCC[C@H](N)C(=O)O

B1: H-Ile-Lys-Pqa-Arg-His-Tyr-Leu-Asn-Leu-Val-Ala-Arg-Gln-Arg-Tyr-NH2 (peptide)
peptide: H-IK[Pqa]RHYLNLVARQRY-NH2
SMILES: CC[C@H](C)[C@H](N)C(=O)N[C@@H](CCCCN)C(=O)N1CCN(c2ccc3ncn(CC(=O)N[C@@H](CCCNC(=N)N)C(=O)N[C@@H](Cc4c[nH]cn4)C(=O)N[C@@H](Cc4ccc(O)cc4)C(=O)N[C@@H](CC(C)C)C(=O)N[C@@H](CC(N)=O)C(=O)N[C@@H](CC(C)C)C(=O)N[C@H](C(=O)N[C@@H](C)C(=O)N[C@@H](CCCNC(=N)N)C(=O)N[C@@H](CCC(N)=O)C(=O)N[C@@H](CCCNC(=N)N)C(=O)N[C@@H](Cc4ccc(O)cc4)C(N)=O)C(C)C)c(=O)c3c2)CC1
B2: Ac-Ile-Nle-Pqa-(2,3,4,5,6 Penta fluoro Phe)-His Tyr-Leu-Asn-Leu-Val-Thr-Arg-Gln-Arg-Tyr-NH2 (peptide)
peptide: Ac-I[Nle][Pqa][Phe(F5)]HYLNLVTRQRY-NH2
SMILES: CCCC[C@H](NC(=O)[C@@H](NC(C)=O)[C@@H](C)CC)C(=O)N1CCN(c2ccc3ncn(CC(=O)N[C@@H](Cc4c(F)c(F)c(F)c(F)c4F)C(=O)N[C@@H](Cc4c[nH]cn4)C(=O)N[C@@H](Cc4ccc(O)cc4)C(=O)N[C@@H](CC(C)C)C(=O)N[C@@H](CC(N)=O)C(=O)N[C@@H](CC(C)C)C(=O)N[C@H](C(=O)N[C@H](C(=O)N[C@@H](CCCNC(=N)N)C(=O)N[C@@H](CCC(N)=O)C(=O)N[C@@H](CCCNC(=N)N)C(=O)N[C@@H](Cc4ccc(O)cc4)C(N)=O)[C@@H](C)O)C(C)C)c(=O)c3c2)CC1
B3: Ac-Ile-Nle-Pqa-Arg-His-Tic-Leu-Asn-Leu-Val-Thr-Arg-Gln-Arg-Tyr-NH2 (peptide)
peptide: Ac-I[Nle][Pqa]RH[Tic]LNLVTRQRY-NH2
SMILES: CCCC[C@H](NC(=O)[C@@H](NC(C)=O)[C@@H](C)CC)C(=O)N1CCN(c2ccc3ncn(CC(=O)N[C@@H](CCCNC(=N)N)C(=O)N[C@@H](Cc4c[nH]cn4)C(=O)N4Cc5ccccc5C[C@H]4C(=O)N[C@@H](CC(C)C)C(=O)N[C@@H](CC(N)=O)C(=O)N[C@@H](CC(C)C)C(=O)N[C@H](C(=O)N[C@H](C(=O)N[C@@H](CCCNC(=N)N)C(=O)N[C@@H](CCC(N)=O)C(=O)N[C@@H](CCCNC(=N)N)C(=O)N[C@@H](Cc4ccc(O)cc4)C(N)=O)[C@@H](C)O)C(C)C)c(=O)c3c2)CC1
B4: Ac-Ile-Nle-Pqa-(3,4,5 Trifluoro Phe)-His-Tyr-Leu-Asn-Leu-Val-Thr-Arg-Gln-Arg-Tyr-NH2 (peptide)
peptide: Ac-I[Nle][Pqa][Phe(3,4,5-F3)]HYLNLVTRQRY-NH2
SMILES: CCCC[C@H](NC(=O)[C@@H](NC(C)=O)[C@@H](C)CC)C(=O)N1CCN(c2ccc3ncn(CC(=O)N[C@@H](Cc4cc(F)c(F)c(F)c4)C(=O)N[C@@H](Cc4c[nH]cn4)C(=O)N[C@@H](Cc4ccc(O)cc4)C(=O)N[C@@H](CC(C)C)C(=O)N[C@@H](CC(N)=O)C(=O)N[C@@H](CC(C)C)C(=O)N[C@H](C(=O)N[C@H](C(=O)N[C@@H](CCCNC(=N)N)C(=O)N[C@@H](CCC(N)=O)C(=O)N[C@@H](CCCNC(=N)N)C(=O)N[C@@H](Cc4ccc(O)cc4)C(N)=O)[C@@H](C)O)C(C)C)c(=O)c3c2)CC1
B5: H-Ile-Lys-Pqa-Arg-His-Tyr-Leu-Asn-Leu-Ala-Thr-Arg-Gln-Arg-Tyr-NH2 (peptide)
peptide: H-IK[Pqa]RHYLNLATRQRY-NH2
SMILES: CC[C@H](C)[C@H](N)C(=O)N[C@@H](CCCCN)C(=O)N1CCN(c2ccc3ncn(CC(=O)N[C@@H](CCCNC(=N)N)C(=O)N[C@@H](Cc4c[nH]cn4)C(=O)N[C@@H](Cc4ccc(O)cc4)C(=O)N[C@@H](CC(C)C)C(=O)N[C@@H](CC(N)=O)C(=O)N[C@@H](CC(C)C)C(=O)N[C@@H](C)C(=O)N[C@H](C(=O)N[C@@H](CCCNC(=N)N)C(=O)N[C@@H](CCC(N)=O)C(=O)N[C@@H](CCCNC(=N)N)C(=O)N[C@@H](Cc4ccc(O)cc4)C(N)=O)[C@@H](C)O)c(=O)c3c2)CC1
B6: H-Ile-Lys-Pqa-Arg-His-Tyr-Leu-Asn-Leu-Val-Thr-Arg-Ala-Arg-Tyr-NH2 (peptide)
peptide: H-IK[Pqa]RHYLNLVTRARY-NH2
SMILES: CC[C@H](C)[C@H](N)C(=O)N[C@@H](CCCCN)C(=O)N1CCN(c2ccc3ncn(CC(=O)N[C@@H](CCCNC(=N)N)C(=O)N[C@@H](Cc4c[nH]cn4)C(=O)N[C@@H](Cc4ccc(O)cc4)C(=O)N[C@@H](CC(C)C)C(=O)N[C@@H](CC(N)=O)C(=O)N[C@@H](CC(C)C)C(=O)N[C@H](C(=O)N[C@H](C(=O)N[C@@H](CCCNC(=N)N)C(=O)N[C@@H](C)C(=O)N[C@@H](CCCNC(=N)N)C(=O)N[C@@H](Cc4ccc(O)cc4)C(N)=O)[C@@H](C)O)C(C)C)c(=O)c3c2)CC1
B7: Ac-Ile-Nle-Pqa-Arg-(4-Pal)-Tyr-Leu-Asn-Leu-Val-Thr-Arg-Gln-Arg-Tyr-NH2 (peptide)
peptide: Ac-I[Nle][Pqa]R[4Pal]YLNLVTRQRY-NH2
SMILES: CCCC[C@H](NC(=O)[C@@H](NC(C)=O)[C@@H](C)CC)C(=O)N1CCN(c2ccc3ncn(CC(=O)N[C@@H](CCCNC(=N)N)C(=O)N[C@@H](Cc4ccncc4)C(=O)N[C@@H](Cc4ccc(O)cc4)C(=O)N[C@@H](CC(C)C)C(=O)N[C@@H](CC(N)=O)C(=O)N[C@@H](CC(C)C)C(=O)N[C@H](C(=O)N[C@H](C(=O)N[C@@H](CCCNC(=N)N)C(=O)N[C@@H](CCC(N)=O)C(=O)N[C@@H](CCCNC(=N)N)C(=O)N[C@@H](Cc4ccc(O)cc4)C(N)=O)[C@@H](C)O)C(C)C)c(=O)c3c2)CC1
B8: H-Ile-Lys-Pqa-Arg-His-Tyr-Leu-Ala-Leu-Val-Thr-Arg-Gln-Arg-Tyr-NH2 (peptide)
peptide: H-IK[Pqa]RHYLALVTRQRY-NH2
SMILES: CC[C@H](C)[C@H](N)C(=O)N[C@@H](CCCCN)C(=O)N1CCN(c2ccc3ncn(CC(=O)N[C@@H](CCCNC(=N)N)C(=O)N[C@@H](Cc4c[nH]cn4)C(=O)N[C@@H](Cc4ccc(O)cc4)C(=O)N[C@@H](CC(C)C)C(=O)N[C@@H](C)C(=O)N[C@@H](CC(C)C)C(=O)N[C@H](C(=O)N[C@H](C(=O)N[C@@H](CCCNC(=N)N)C(=O)N[C@@H](CCC(N)=O)C(=O)N[C@@H](CCCNC(=N)N)C(=O)N[C@@H](Cc4ccc(O)cc4)C(N)=O)[C@@H](C)O)C(C)C)c(=O)c3c2)CC1

For one assay, the target named is Y1R. As to the kind of experiment: cell-based or functional assay.
Y1R, sequence (P25929 whole entry): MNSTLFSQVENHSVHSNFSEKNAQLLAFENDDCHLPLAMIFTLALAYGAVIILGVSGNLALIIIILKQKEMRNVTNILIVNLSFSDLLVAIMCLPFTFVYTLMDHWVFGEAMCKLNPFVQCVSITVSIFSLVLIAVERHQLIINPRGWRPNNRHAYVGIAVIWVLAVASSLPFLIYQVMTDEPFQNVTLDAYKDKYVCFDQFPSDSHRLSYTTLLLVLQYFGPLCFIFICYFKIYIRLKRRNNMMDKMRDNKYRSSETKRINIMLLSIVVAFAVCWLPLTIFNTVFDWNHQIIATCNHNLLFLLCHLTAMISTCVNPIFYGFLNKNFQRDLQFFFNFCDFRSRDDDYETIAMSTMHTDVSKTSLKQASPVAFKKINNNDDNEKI
Turning to Ac-I[Nle][Pqa]RHYKNLVDRQRY-NH2 (lactam 7-11) [Cyclo Lys28-Asp32 Ac-Ile-Nle-Pqa-Arg-His-Tyr-Lys-Asn-Leu-Val-Asp-Arg-Gln-Arg-Tyr-NH2], the “Y1R EC50(nM) FLIPR” value is over 5000 nM.

As to B1, the “Y1R EC50(nM) FLIPR” value is over 5000 nM.

IKRHYLNAVTRQRY (Pqa moiety between the two parts; C-terminal amide) [H-Ile-Lys-Pqa-Arg-His-Tyr-Leu-Asn-Ala-Val-Thr-Arg-Gln-Arg-Tyr-NH2]: the “Y1R EC50(nM) FLIPR” value was over 5000 nM.

Regarding B2, the “Y1R EC50(nM) FLIPR” value was over 5000 nM.

Regarding Ac-I[Nle][Pqa]R[4‑MeOApc]YLNLVTRQRY-NH2 (reading uncertain) [Ac-Ile-Nle-Pqa-Arg-(4-MeOApc)-Tyr-Leu-Asn-Leu-Val-Thr-Arg-Gln-Arg-Tyr-NH2], the “Y1R EC50(nM) FLIPR” value is over 5000 nM.

For B3, the “Y1R EC50(nM) FLIPR” value was over 5000 nM.

For the molecule B4, the “Y1R EC50(nM) FLIPR” value was over 5000 nM.

Consider B5, for which the “Y1R EC50(nM) FLIPR” value is over 5000 nM.

With B6, the “Y1R EC50(nM) FLIPR” value was over 5000 nM.

Regarding B7, the “Y1R EC50(nM) FLIPR” value was over 5000 nM.

Regarding B8, the “Y1R EC50(nM) FLIPR” value is over 5000 nM.

The next assay concerns the target Y4R. As to the kind of experiment: cell-based or functional assay.
For the molecule Ac-I[Nle][Pqa]RHYKNLVDRQRY-NH2 (lactam 7-11) [Cyclo Lys28-Asp32 Ac-Ile-Nle-Pqa-Arg-His-Tyr-Lys-Asn-Leu-Val-Asp-Arg-Gln-Arg-Tyr-NH2], the “Y4R EC50(nM) FLIPR” value was over 5000 nM.

B1: the “Y4R EC50(nM) FLIPR” value was over 5000 nM.

As for IKRHYLNAVTRQRY (Pqa moiety between the two parts; C-terminal amide) [H-Ile-Lys-Pqa-Arg-His-Tyr-Leu-Asn-Ala-Val-Thr-Arg-Gln-Arg-Tyr-NH2], the “Y4R EC50(nM) FLIPR” value is over 5000 nM.

Take B2: the “Y4R EC50(nM) FLIPR” value is over 5000 nM.

Consider Ac-I[Nle][Pqa]R[4‑MeOApc]YLNLVTRQRY-NH2 (reading uncertain) [Ac-Ile-Nle-Pqa-Arg-(4-MeOApc)-Tyr-Leu-Asn-Leu-Val-Thr-Arg-Gln-Arg-Tyr-NH2], for which the “Y4R EC50(nM) FLIPR” value was over 5000 nM.

Regarding B3, the “Y4R EC50(nM) FLIPR” value is over 5000 nM.

Turning to B4, the “Y4R EC50(nM) FLIPR” value was over 5000 nM.

In the case of B5, the “Y4R EC50(nM) FLIPR” value was over 5000 nM.

For the molecule B6, the “Y4R EC50(nM) FLIPR” value is over 5000 nM.

On to B7, for which the “Y4R EC50(nM) FLIPR” value was over 5000 nM.

On to B8, for which the “Y4R EC50(nM) FLIPR” value is over 5000 nM.
